# What was measured:
# MS2 coat protein = experiment: apparent KD of MS2 coat protein; designed switch direction (-1 OFF switch, 1 ON switch): 1; higher = weaker reporter binding
# How it was run: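 Designed RNA switches with common flanks were transcribed on Illumina chips by stalled E. coli RNA polymerase and titrated with SNAP-549-labelled MS2 coat protein, from 0.7 or 1.5 nM doubling to 3 µM, in Tris-HCl pH 7.5 buffer with KCl, MgCl2, BSA, DTT, tRNA and Tween-20. Steps lasted 0.8–1.5 h (lowest) to 10–20 min (highest). Titrations ran without input, with 200 uM small-molecule ligand, or with an oligonucleotide input. Normalised cluster fluorescence was curve-fitted, and apparent KD is the per-design median over clusters.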
# [1] = system: K4 kissing-loop RNA reporter; experiment: apparent KD of K4 kissing-loop reporter; higher = weaker reporter binding; settings: Eterna round: R107;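 note: bound reporter read as fluorescence of individual clusters on recovered sequencing chips by microscopy, with normalized cluster intensities fitted with a binding model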
# Experimental: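 RNA-MaP round R107: designed RNA switches with theophylline, tryptophan, arginine or FMN aptamers are transcribed on-chip within common flanks. They are titrated with a labelled K4 kissing-loop RNA reporter in RNA-MaP buffer (100 mM Tris pH 7.5, 80 mM KCl, 4 mM MgCl2), without ligand or with the indicated ligand. Median apparent KD per design.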
# [2] = input ligand: microRNA oligo, concentration not stated
# [3] = Eterna round: R95, input ligand: FMN 200 uM
# [4] = Eterna round: R95, input ligand: microRNA oligo, concentration not stated
# [5] = Eterna round: R95, input ligand: none
# [6] = input ligand: theophylline 20 uM
# [7] = input ligand: tryptophan 2.4 mM
Sequence,apparent KD of MS2 coat protein (MS2 coat protein; input ligand: FMN 200 uM) [nM],apparent KD of MS2 coat protein (MS2 coat protein; [2]) [nM],apparent KD of MS2 coat protein (MS2 coat protein; input ligand: none) [nM],apparent KD of MS2 coat protein (MS2 coat protein; [3]) [nM],apparent KD of MS2 coat protein (MS2 coat protein; [4]) [nM],apparent KD of MS2 coat protein (MS2 coat protein; [5]) [nM],apparent KD of K4 kissing-loop reporter ([1]; input ligand: FMN 200 uM) [nM],apparent KD of K4 kissing-loop reporter ([1]; input ligand: arginine 13.2 mM) [nM],apparent KD of K4 kissing-loop reporter ([1]; input ligand: none) [nM],"apparent KD of K4 kissing-loop reporter [1, 6] [nM]","apparent KD of K4 kissing-loop reporter [1, 7] [nM]"
"UGGUACAUGGGAGGAUAUGGGCAUGAGACAUGAGGAUCACCCAUGUUAUAAAAGCCGAGAGGCAUCUAGAAGGCCCAUGUACCU [JL SSNG1 3.91] (Eterna round: R96, puzzle: Same State NG 2)",15.2,95.2,139,,,,,,,,
AACAAUCUAUCUGAGGAUAUCAUGAAAUAAACAUGAGGAUCACCCAUGUGUAGGAAAACUGCAUAUGAGAAGGCAGAUAGAUUGA [salish99_ss2_r3_036] (puzzle: Same State 2),,,,31.9,299,1330,,,,,
"GGAGCCGGCCUAGGAUAUUUCAUAAAUAAACAUGAGGAUCACCCAUGUAGGCCAGAAGGCCUUGGGAAGAAGGAGGUCGGCUCC [Loop Effect - U27] (Eterna round: R96, puzzle: Same State NG 2)",9.58,30.2,33.9,,,,,,,,
AGUCCAGCCUAAGCUGGACAAAAGCAUGUACAUGAGGAUCACCCAUGUUCAUGUACAAGCUUUUUGCUCGUCUUAAU [Mat - hsa-mir-208a - Mod of JL - 60] (puzzle: Sensor for hsa-mir-208a),,,,608,18.1,697,,,,,
"GCUCGCACGAUGACCCACAUGAGGAUCACCCAUGUGCUUGGGCAGGAUAUCUAGAUUAAGGAUGUAGAGAAGGGUUGAGCGAGC [SameState NG3 #27] (Eterna round: R96, puzzle: Same State NG 3)",308,113,230,,,,,,,,
"GUCAGCGAUUGAGGAUAUCACGUCGAUUAGACGUGAGAAGGCGAUCAUAACAUGAGGAUCACCCAUGUAUUACAUGAAGCUGAC [SSNG1/5-A2] (Eterna round: R96, puzzle: Same State NG 1)",19.6,17.5,27.1,,,,,,,,
CUGUCUACAGGUGUCUUUGCUCGUUUUAUACAUGAGGAUCACCCAUGUUAUAGCCCGGUGCUUGCGCUGGGCUGAUU [JL ViennaUCT Tearor mod 8] (puzzle: Sensor for hsa-mir-208a),,,,66.8,14.1,63,,,,,
"UGAAUAGUGAUAGGAUAUACAUGAGGAAUCCUCGUAGAAGGAUCAUAACAUGAGGAUCACCCAUGUAGCCGUCGAAAGACGGCA [Mat - Same State NG 1 - JL mod - D58] (Eterna round: R96, puzzle: Same State NG 1)",200,72,122,,,,,,,,
GGAGCCGGCACUGAGGAUAUUCAUAUUAAAACAUGAGGAUCACCCAUGUGGGCCAGAAGGCCUUGGGAGAAGGCAGGUCGACUCG [Diqureveri - 3] (puzzle: Same State 2),,,,18.5,145,243,,,,,
"GAGUGGCAGUUAGGAUAUACAGUGAUAAUGAUAGUAGAAGGAACAGACAUGAGGAUCACCCAUGUAGGACUAAUCCAGAGAGAG [Parity 33 - Jieux - Same State NG 1] (Eterna round: R96, puzzle: Same State NG 1)",30.8,29.8,34.9,,,,,,,,
GGAGCAGGUGAAGGAUAUCCCGGGCCAGAGUGAUGUUCUGGAUCCCUUGCCGUUUCUAAACGGGUGGGAGAAGGUCACUGAUAAG [Bibimati],,,,,,,132,154,234,180,164
GCGGACAUUCGCAGUGAUGUUGCGACGGAAGGAGCGGAUGAAAAUCCAGGUAGGUCGCCGACAAAAUUAAUUUUAAUGUGUUCGC [#03 K4 Arginine A Same State],,,,,,,358,325,437,316,324
AAGUCAUAGGCAGGAUAUGCUUAGUAUUAAGGCCAUAUAUACGUAUAGAGUGAUGUUUUGUACCAGGCAGAAGGGCUACAUCAGU [FMN B Excl V6 (+A)],,,,,,,448,483,603,634,536
GUAUCGCUAGGAGGAUAUUUCAAUUCGCCUAUAAAUGGUGAUACGGAGUGAUGUUCCGAUUUACGGAAAGAAGGCCUAGUGAUAC [FMN B 8],,,,,,,146,275,283,298,282
GCCAGUGCACGAAGGAGCGCCGUGACAGGUUACUGCCUUGGGCAGUGAUGUUGCUCAAUCUGGCAGGUAGGUCGCGUGCACUGGC,,,,,,,169,147,170,175,177
UGAUCUCGGCAGUGAUGUUGCAUAUGAGAAGGAGCGCACGAAAGUGCAGGUAGGUCGCUCAGCCAAAGAAAAUAAAACGAGAUCU [#SwitchBubble #K4Early],,,,,,,93.4,121,101,124,82
GCCGUAGAUUGAAGGAGCGGGCCGUAGUGAUGUUACGCCAAUUUAUCUUUUCUUGAUGUGGCCCAGGUAGGUCGCAAUCUACGGC,,,,,,,241,204,216,207,193
UGUCUACCGGGAAGGAGCGUGAAUGAUAAUGGAUAUAGUGAUGUUAUAUAUACGAACGAAUCGCAGGUAGGUCGCCCGGAUCCCU [SSArgB.W],,,,,,,431,419,606,431,481
AAUGUACAAGUGAUGUUUGUACUUUCCGAAGGAGCGUCAAAUAAGACAGGUAGGUCGCGGAUACUCUAAAUAAUCAGGUCAUUAA [JR_ExcArginiA_Sub019],,,,,,,89.4,88,88.9,87.2,85
UUUAAAUAUAGUGAUGUUAUAUAACAAUGACGAGGACCGGUACGGCCGCCACUCGAGAGAGAUAAUGGUCAUACAAAUGUAUGUC [AstrosSSTryA#7],,,,,,,799,706,1100,830,564
AAGUCAUACAGAAGGAGCGUGUUUUAUAAUUUAUUUUCAUGAUCGAGUGAUGUUCGAUAUACACAGGUAGGUCGCUGUAUAAUAA [JR_SSArginiB_Sub007],,,,,,,102,146,121,146,103
AUUUAAUUAACUGAUACCAGACUUUAAGUAAUUAUUAAAACUAGUGAUGUUAGUUUAUCUGUCCCUUGGCAGCAGUUUCUACUUA [JR_Nu_ExcTheophyB_Sub020],,,,,,,144,136,158,135,127
UUAGGAGAGGGAAGGAGCGUGAAAGAGAAAGAAUAUAGUGAUGUUAUAUAGAAGAAAGAAUCACAGGUAGGUCGCCCGGAGGAGG [SSArgB.C],,,,,,,672,520,632,225,518
UGUGUACCGGGAAGGAGCGUGAAUGAGAAUGGAUAUAGUGAUGUUAUGUAUACGAACGAAUCGCAGGUAGGUCGCCCGGAUCCCU [SSArgB.Z],,,,,,,513,320,677,396,461
UGAUACCAGACUGAUACCAGCCAGUGAUGUUGGCUAAGCCAAAUAGGUGUCAAAGACACCGGCCCUUGGCAGCAGUCUGGUAUCU [TheoBX 2 #SwitchBubble #StaticStem],,,,,,,133,113,126,136,119
UGAUACCAGACUGAUACCAGCGAGUGAUGUUCGCUGAAAUCAGGGUCAAAGACCCUGUCUCGCCCUUGGCAGCAGUCUGGUAUCU [TheoBX 20 #SwitchBubble #StaticStem],,,,,,,147,120,133,185,128
